The source of these data is PMC4941208 (Journal of the American Chemical Society, 2015).

For one data set, the system named is hydrogel of P-1. The data set can be described thus: Gel-sol transition and rheology. The class given is physicochemical. Particulars: 7 days.
A further data set addresses proteinase K (Parengyodontium album, UniProt P06873). Type of data set: in vitro ADME. The note with it: 37 °C, 24 h.
Data set [1] is described as follows: TEM of hydrogel and solutions. The class given is physicochemical. Particulars: solution at 16.6 mM.
The data set “hydrogelation + TEM” deals with the molecule itself. As to the kind of experiment: hydrogelation + TEM.
Data set [2] deals with T1, P-1 (Nap-FF-LGFNI, heptapeptide derivative).
T1 sequence (peptide, 2-(naphthalen-2-yl)acetic group (Nap) on the N-terminus): FFLGFNI
As to the kind of experiment: ITC. (In general: ITC needs no label: the signal is the heat of the interaction.)

No end group written: not given here. *: point of attachment. GlcN = OC[C@H]1OC(O)[C@H](N*)[C@@H](O)[C@@H]1O; Acetyl(2-naphthyl) = O=C(Cc1ccc2ccccc2c1)*

Sequence of proteinase K (P06873 106-384): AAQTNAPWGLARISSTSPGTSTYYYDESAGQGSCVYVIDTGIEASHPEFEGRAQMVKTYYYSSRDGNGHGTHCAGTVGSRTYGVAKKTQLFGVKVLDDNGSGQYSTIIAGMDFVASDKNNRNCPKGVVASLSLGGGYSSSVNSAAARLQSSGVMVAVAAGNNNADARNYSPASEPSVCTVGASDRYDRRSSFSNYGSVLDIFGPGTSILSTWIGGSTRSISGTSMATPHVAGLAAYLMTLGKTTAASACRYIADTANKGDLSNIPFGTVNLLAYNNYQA

On to “GP-2: Glycoconjugate of nucleobase, peptide, saccharide: thymine at N-terminal and glucosamine at C-terminal of TTPV (thymine-TTPV-GlcN)”, for which the “G' times smaller than that of hydrogel of P-1” value in the data set with hydrogel of P-1 (4 equiv of compound) is “about 300 times”. For the same molecule, in the data set with hydrogel of P-1 (hydrogel of P-1 622 μM, pH 6.4, 300 μL + 50 μL 15 mM compound (4:1)), the “Max G' of P-1 after addition of 4 equiv of compound” value is 0.06 Pa. The “Hydrogelator P-1 remaining in mixture with 1 equiv of compound” value with proteinase K (hydrogel of P-1 + compound 1:1, proteinase K 3.2 U/mL) was 45.0 ± 0.4%. Moreover, in the data set with proteinase K (hydrogel of P-1 + compound 4:1, proteinase K 3.2 U/mL), the “Hydrogelator P-1 remaining in mixture with 4 equiv of compound” value is reported as 24.2 ± 2.0%. Also, the “nanostructures in TEM images of the solution” value in data set [1] is reported as “hardly any ordered nanostructures”.
On to {Acetyl(2-naphthyl)}-FFLGFNI [P-1 (Nap-FF-LGFNI, heptapeptide derivative)], for which the binding result in the data set “hydrogelation + TEM” was “binds”.
For orientation: Kd means the concentration at which binding is half-saturated. A lower Kd goes with higher affinity. In general, stoichiometry N refers to a count of units in the complex or per binding partner. As for thymine-TTPV [P-3 (thymine-TTPV, non-glycosylated control of GP-2)], in data set [2], the Kd was 235 µM, the dH is -3.13 kcal/mol and the stoichiometry N was 1.38.
For thymine-TTPV-GlcN [GP-2 (thymine-TTPV-glucosamine, conjugate of nucleobase, peptide and saccharide)], in that order: 262 µM, -4.11 kcal/mol and 1.04.
